T1: full-length KIF5B-GFP with C-terminal Strep-tag (human, UniProt P33176 1-963)
T1 sequence (looked up): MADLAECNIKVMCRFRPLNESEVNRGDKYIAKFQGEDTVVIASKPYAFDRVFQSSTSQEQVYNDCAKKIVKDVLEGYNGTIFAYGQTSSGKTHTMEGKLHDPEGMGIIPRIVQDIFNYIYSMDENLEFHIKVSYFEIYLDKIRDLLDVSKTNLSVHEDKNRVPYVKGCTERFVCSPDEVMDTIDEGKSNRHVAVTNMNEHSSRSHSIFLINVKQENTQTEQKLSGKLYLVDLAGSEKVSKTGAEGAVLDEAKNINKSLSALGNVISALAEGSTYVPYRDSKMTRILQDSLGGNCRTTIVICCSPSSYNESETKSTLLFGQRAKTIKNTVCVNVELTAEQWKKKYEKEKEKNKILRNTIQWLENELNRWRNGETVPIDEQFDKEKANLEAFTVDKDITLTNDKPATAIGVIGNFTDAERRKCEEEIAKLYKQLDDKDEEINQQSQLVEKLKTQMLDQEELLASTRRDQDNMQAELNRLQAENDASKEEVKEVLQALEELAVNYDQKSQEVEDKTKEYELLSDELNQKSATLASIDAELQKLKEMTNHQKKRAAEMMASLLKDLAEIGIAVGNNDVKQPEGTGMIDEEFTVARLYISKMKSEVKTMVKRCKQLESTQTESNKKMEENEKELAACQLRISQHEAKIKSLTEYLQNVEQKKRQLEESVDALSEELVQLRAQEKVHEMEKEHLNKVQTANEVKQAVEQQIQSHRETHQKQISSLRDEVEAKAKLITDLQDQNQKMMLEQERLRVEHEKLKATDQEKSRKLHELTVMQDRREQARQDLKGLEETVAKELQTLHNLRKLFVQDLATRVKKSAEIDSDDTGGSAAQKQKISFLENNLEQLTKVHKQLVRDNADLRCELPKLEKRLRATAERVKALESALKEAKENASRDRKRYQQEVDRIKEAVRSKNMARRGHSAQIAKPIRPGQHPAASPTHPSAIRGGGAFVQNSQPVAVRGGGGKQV

B1: KIF5B fragment (minimal binding construct for SEC-MALS and ITC) (domain or fragment)
chain: CEEEIAKLYKQLDDKDEEINQQSQLVEKLKTQMLDQEELLASTRRDQDNMQAELNRLQAENDASKEEVKEVLQALEELAVNYDQKSQEVEDKTKEYELLSDEL
B2: K370-GFP with C-terminal Strep-tag, purified (domain or fragment)
chain: not shown
notes: kinesin-1 heavy chain KIF5B, human, residues 1-370; pEGFP-N1 vector; also called KIF5B 1–370; source: HEK293T, transfected, purified (Strep(II)-streptactin); not shown: GFP, C-terminal, kept
B3: Alexa Fluor 647–labeled SNAP-tag-MAP7D3, full length (natural protein, UniProt Q8IWC1 1-876, looked up)
chain: MMADGAAAGAGGSPSLRELRARMVAAANEIAKERRKQDVVNRVATHSSNIRSTFKPVIDGSMLKNDIKQRLARERREEKRRQQDANKETQLLEKERKTKLQYEKQMEERQRKLKERKEKEEQRRIAAEEKRHQKDEAQKEKFTAILYRTLERRRLADDYQQKRWSWGGSAMANSESKTANKRSASTEKLEQGTSALIRQMPLSSAGLQNSVAKRKTDKERSSSLNRRDSNLHSSTDKEQAERKPRVTGVTNYVMQYVTVPLRKCTSDELRAVMFPMSTMKIPPQTKVEESPLEKVETPPKASVDAPPQVNVEVFCNTSMEASPKAGVGMAPEVSTDSFPVVSVDVSPVVSTYDSEMSMDASPELSIEALPKVDLETVPKVSIVASPEASLEAPPEVSLEALPEVSVEAAPEGSLEAPPKGSAEVAPKESVKGSPKESMEASPEAMVKASPKTSLEASMEASPKAKARDAPKKSEMDKQALIPIAKKRLSSYTECYKWSSSPENACGLPSPISTNRQIQKNCPPSPLPLISKQSPQTSFPYKIMPIQHTLSVQSASSTVKKKKETVSKTTNRCEALSQRHMIYEESGNKSTAGIMNAEAATKILTELRRLAREQREKEEEERQREEMQQRVIKKSKDMAKEAVGGQAEDHLKLKDGQQQNETKKKKGWLDQEDQEAPLQKGDAKIKAQEEADKRKKEHERIMLQNLQERLERKKRIEEIMKRTRKTDVNASKVTETSSHDIYEEAEADNEESDKDSLNEMFPSAILNGTGSPTKFKMPFNNAKKMTHKLVFLEDGTSQVRKEPKTYFNGDLKNFRQKSMKDTSIQEVVSRPSSKRMTSHTTKTRKADETNTTSRSSAQTKSEGFHDILPKSSDTFRQ
modifications: Alexa Fluor 647 on the SNAP-tag
B4: K560-GFP with C-terminal Strep-tag, purified (domain or fragment, human, UniProt P33176 1-560, looked up)
chain: MADLAECNIKVMCRFRPLNESEVNRGDKYIAKFQGEDTVVIASKPYAFDRVFQSSTSQEQVYNDCAKKIVKDVLEGYNGTIFAYGQTSSGKTHTMEGKLHDPEGMGIIPRIVQDIFNYIYSMDENLEFHIKVSYFEIYLDKIRDLLDVSKTNLSVHEDKNRVPYVKGCTERFVCSPDEVMDTIDEGKSNRHVAVTNMNEHSSRSHSIFLINVKQENTQTEQKLSGKLYLVDLAGSEKVSKTGAEGAVLDEAKNINKSLSALGNVISALAEGSTYVPYRDSKMTRILQDSLGGNCRTTIVICCSPSSYNESETKSTLLFGQRAKTIKNTVCVNVELTAEQWKKKYEKEKEKNKILRNTIQWLENELNRWRNGETVPIDEQFDKEKANLEAFTVDKDITLTNDKPATAIGVIGNFTDAERRKCEEEIAKLYKQLDDKDEEINQQSQLVEKLKTQMLDQEELLASTRRDQDNMQAELNRLQAENDASKEEVKEVLQALEELAVNYDQKSQEVEDKTKEYELLSDELNQKSATLASIDAELQKLKEMTNHQKKRAAEMMASLLK
notes: kinesin-1 heavy chain KIF5B, human, residues 1-560; pTT5 vector; also called KIF5B-560; source: HEK293T, transfected, purified (Strep(II)-streptactin, high-salt wash); not shown: GFP, C-terminal, kept

Assays:
[1] = biological target: the molecule itself; assay: SEC-MALS; Superdex 200 10/300, 10 mM Tris HCl pH 7.5, 150 mM NaCl, 20°C; 30 µl of protein at 5 mg/ml injected
[2] = biological target: the molecule itself; assay: single-molecule fluorescence intensity analysis (TIRF); intensity of GFP-tagged kinesins moving on MTs compared with monomeric GFP, with or without MAP7 proteins; 30°C
[3] = biological target: B4; assay: cell-based or functional assay
[4] = biological target: T1, full-length KIF5B-GFP with C-terminal …; assay: cell-based or functional assay

Binder: B1
- stoichiometry N [1]: 2

Binder: B2
- stoichiometry N [2]: 2

Binder: B3
- landing frequency of K560-GFP on MAP-decorated dynamic MTs in vitro, increasing MAP concentrations, against K560 alone [3]: ≤ 23.6 fold
- processivity (run length) of K560-GFP on dynamic MTs in vitro [3]: 2 fold
- events of full-length KIF5B-GFP on dynamic MTs in vitro (short binding events and landing followed by processive movement), with MAP against kinesin alone [4]: ≥ 60 fold
- run length of full-length KIF5B-GFP on dynamic MTs in vitro, with MAP against kinesin alone [4]: ~1.6 fold

Binder: B4
- stoichiometry N [2]: 2

— article PMC6446838, “MAP7 family proteins regulate kinesin-1 recruitment and activation” (The Journal of Cell Biology, 2019)
